Key:
[1] = system: U-87 glioblastoma cell line; experiment: MTT Cell Proliferation assay, U-87 glioblastoma cell line; format: cell-based; settings: U-87, 10 μg dose, after 8 days of culture; FIG. 14
Protocol: The cell culture was carried out under aseptic conditions on Nunclon™ treated tissue culture plastics. The U-87 glioblastoma cells (ATCC noHTB-14) used for this project were cultured in standard EMEM (Earle's Minimum Essential Medium) media (Gibco) with 10% Fetal Calf Serum (Gibco) and 5% Penicillin/Streptomycin antibiotic (Sigma). The frozen cells were thawed at 37° C. for 2 minutes. The cells were then immediately transferred to 75 cm2 flask with 10 ml of media. The culture was incubated at 37° C. with 5% CO2 to attain confluency. The media was changed every three days and the cells were then subcultured after reaching 80-90% confluency. […]
The U87 glioblastoma cells were grown under standard conditions (as mentioned above). The total number of cells were counted using a haemocytometer (Hawksley) and the concentration was calculated using the following equation: […]
Two groups of proliferation studies were carried out for each antibody. […] Mouse anti-GST antibody concentration responses were also calculated the similar way since it was the antibody control for the experiment
In order to check for consistency of the cells seeded, a 12-24 hours study was performed. […] The plate was read for absorbance at 595 nm (Spectramax M5e), using the software Softmax™ Pro 5.2.X 100035.
The proliferation/survival of SW-13 and U87 (Glioblastoma cell line) cells was determined using the MTT assay.

[2] = system: MDA-MB-436-GFP breast cancer cells; experiment: MDA-MB-436-GFP xenograft in CD1 nude mice; format: in vivo, CD1 nude (nu/nu) mice; settings: right flank of CD1 nude mice, 6 weeks
Protocol: MDA-MB-436-GFP cells were cultured in RPMI media containing penicillin (50 U/ml), streptomycin (50 μg/ml), glutamine (1 mg/ml), and supplemented with 10% fetal bovine serum. Cells were cultured under a humid 5% CO2/95% air atmosphere, and fed with fresh medium every 2 days, being routinely monitored for mycoplasma contamination. Cells growing exponentially were harvested using Trypsin EDAT solution. All culture media components were purchased from Invitrogen Life Technologies
Animal work was performed in the animal facility of the University of Sheffield. Male 4-to-5-week-old CD1 nude (nu/nu) mice were used. Mice were acclimated and housed in sterile cages in groups of four or less under laminar flow hoods in a temperature-controlled room with a 12-hour light/12-hour dark schedule, and fed autoclaved chow and water ad libitum.
CD1 nude (nu/nu) nude mice were implanted with MDA-MB-436-GFP breast cancer cells. For the cell implantations, MDA-MB-436-GFP cells, grown in culture, were washed with PBS, dispersed in a 0.05% solution of trypsin, and resuspended. […] Tumors were measured with a digital venier calliper (Site), and tumour volumes were determined using the formula width×length×height×0.52 (for ellipsoid form), these measurement were taken twice weekly. […]

[3] = system: MDA-MB-436-GFP breast cancer cell line; experiment: MTT Cell Proliferation assay, MDA-MB-436-GFP breast cancer cell line; format: cell-based; settings: after 8 days of culture, FIG. 17
Protocol: (§1) Two groups of proliferation studies were carried out for each antibody. One group was used to study the effect on proliferation by the antibody in presence of endogenous adrenomedullin, while the other group was used to the study the effects of antibody in presence of exogenously added adrenomedullin. Varying concentrations of antibody were prepared in PBS to result in final well concentrations of 10 μg, 1 μg, 100 ng, 10 ng, 1 ng, 100 pg, 10 pg and 1 pg. Six replicates of each concentration of each antibody was carried out. This dose range was used in both groups. Adrenomedullin was added to the appropriate group to a final well concentration of 200 nM. 5-FluoroUracil (Fluka) was used as a positive control (100 mM) for the reduction in proliferation. PBS controls were also prepared. The plates were then incubated under standard conditions. Replacement and re-dosing of antibody and controls was carried out every 2 days. Mouse anti-GST antibody concentration responses were also calculated the similar way since it was the antibody control for the experiment
(§2) In order to check for consistency of the cells seeded, a 12-24 hours study was performed. Further time points were carried out at 2, 4, 6 and 8 days. […] The plate was read for absorbance at 595 nm (Spectramax M5e), using the software Softmax™ Pro 5.2.X 100035.

[4] = system: U-87 glioblastoma cancer cell line; experiment: Apoptosis assay (caspase-3), U-87 cells; format: cell-based; settings: U-87, 10 μg; FIG. 22
Protocol: (§3) The apoptosis assay was carried out using the Caspase-3 Assay kit (Sigma).
U-87 cells were prepared under standard conditions. A cell solution of 2×10^7 cells was made up in 2 ml of media were dispensed into polypropylene tubes.
(§4) 2×10^7 cells wens taken for each treatment. The treatment groups were, antibody treated cells (for each antibody), anti-Fas antibody, antibody and adrenomedullin treated cells, blank and adrenomedullin treated cells. The positive control used was anti-Fas monoclonal antibody (MBL). The final concentration of antibodies used was […] and for anti-Fas antibody was 500 ng.
(§5) The treated cell suspension in 2 ml media were incubated for 3 hours at 37° C. in a 5% CO2 atmosphere.
The assay buffer and lysis buffer given in the kit was prepared using the given 17 megohm water as per the standard instructions given in the protocol. After 3 hours of incubation, the cells were centrifuged at 600 g for 5 minutes at 4° C. The supernatant was discarded and the cells were resuspended in 1 ml PBS. The cells were once again centrifuged using the above mentioned conditions and the supernatant was discarded. The cell pellet was resuspended in 200 μl 1× lysis buffer and incubated on ice for 20 minutes. The lysed cells were centrifuged at 20,000 g for 15 minutes at 4° C. […] The absorbance was read at 405 nm (Spectramax M5e), using the software Softmax™ Pro 5.2.36.

[5] = system: HCT116 colon cancer cell line; experiment: MTT Cell Proliferation assay, HCT116 colon cancer cell line; format: cell-based; settings: HCT116, 10 μg, after 8 days of culture; FIG. 21
Protocol: as §1, §2

[6] = system: PC-3 prostate cancer cell line; experiment: MTT Cell Proliferation assay, PC-3 prostate cancer cell line; format: cell-based; settings: PC-3, 10 μg, after 8 days of culture, FIG. 19
Protocol: as §1, §2

[7] = system: MDA-MB-436-GFP breast cancer cell line; experiment: Apoptosis assay (caspase-3), MDA-MB-436-GFP cells; format: cell-based; settings: 10 μg, FIG. 23
Protocol: as §3, §4, §5
The assay buffer and lysis buffer given in the kit was prepared using the given 17 megohm water as per the standard instructions given in the protocol. After 3 hours of incubation, the cells were centrifuged at 600 g for 5 minutes at 4° C. The supernatant was discarded and the cells were resuspended in 1 ml PBS. The cells were once again centrifuged using the above mentioned conditions and the supernatant was discarded. The cell pellet was resuspended in 200 μl 1× lysis buffer and incubated on ice for 20 minutes. The lysed cells were centrifuged at 20,000 g for 15 minutes at 4° C. The cell lysine were then laid out in a 96 well flat bottomed plate as shown in FIG. 6 and incubated overnight. The absorbance was read at 405 nm (Spectramax M5e), using the software Softmax™ Pro 5.2.36.

B1: JF2: monoclonal anti-RAMP-3 antibody, IgG, IgG1 subtype (antibody, V domains shown)
VH: QVQLVESGGGVVQPGKSLRLSCAASGFTFSSYGMYWVRQAPGKGLEWVAVISYDGSNKYYADSVKGRFTISRDNSKNTLYLQMNSLRAEDTAVYNCAKEMRYGSGRKAIKYYYGMDVWGQGTTVTVSSASTKGPSVFPLA
VL: DIQMTQSPSSLSASLGERVSLTCRASQDIGSNLNWLQQEPDGTIKRLIYATSSLDSGVPKRFSGSRSGSDYSLTISSLESEDFVDYYCLQYASSPPTFGGGTKLEIKRADAAPTVSIFPPSSKLG
reduction in proliferation [1]: 40% | tumour volume ([2]; versus control groups, FIG. 24): rates of growth within the treatment groups are considerably slower | tumour weights ([2]; calculated back using the volumes of tumours, FIG. 25): still remain below control groups | reduction in proliferation ([3]; 10 μg (greatest reduction)): 12% | reduction in proliferation compared to controls ([3]; doses 1 μg and 10 μg): significant reduction in proliferation | increase levels of caspase-3 [4]: 26% | reduction in proliferation compared to controls [5]: no statistically significant reduction in proliferation | reduction in proliferation ([6]; in the absence of exogenously added adrenomedullin): 22% | reduction in proliferation ([6]; in the presence of adrenomedullin): 37% | levels of caspase-3 (apoptosis), significance [7]: only antibody JB3 showed a significant increased
